In patent publication US20250296971A1, “GASTRIC INHIBITORY PEPTIDE RECEPTOR LIGANDS” (priority 2021, published 2025):
*1 amine or outer side, *2 acyl side, *3 side chain or, on linkers, in order; H or OH if unused. Bridges are numbered along the chain shown (N, C = ends). Primed or numbered codes have the meaning given here. Where no end group is shown, it is not given here. [ ]: non-standard residue; d: D form. The star is where a group is joined. Ttds = 1,13-diamino-4,7,10-trioxatridecan-succinamic acid, NCCCOCCOCCOCCCNC(=O)CCC(=O)*; APAc″ = 4-amino-1-carboxymethylpiperidine, NC1CCN(CC(=O)*)CC1; DOTA = O=C(O)CN1CCN(CC(=O)O)CCN(CC(=O)*)CCN(CC(=O)O)CC1; 2Lut = 2,6-lutidylidene bridge between two thiols; Trp(5-Cl) = N[C@@H](Cc1c[nH]c2ccc(Cl)cc12)C(=O)O; Phe(3,4-Cl2) = N[C@@H](Cc1ccc(Cl)c(Cl)c1)C(=O)O; Pyridine(2,6-diCH2) = c1cc(C[*:1])nc(C[*:2])c1; 2Lut″ = 2,6-lutidylidene linking two thiols; APAc = 4-amino-1-carboxymethylpiperidine; MeO10kDaPEGAc = polydisperse 10 kDa PEG; Pro(4S-NH2) = N[C@@H]1CN[C@H](C(=O)O)C1; Phe(2-Cl) = N[C@@H](Cc1ccccc1Cl)C(=O)O; mXylylene = c1cc(C[*:1])cc(C[*:2])c1; Cya = N[C@@H](CS(=O)(=O)O)C(=O)O; Hyp = O=C(O)[C@@H]1C[C@@H](O)CN1; hArg = N=C(N)NCCCC[C@H](N)C(=O)O; Cysteamide = C(CS[*:3])N[*:1]; Suc = O=C(CCC(=O)[*:2])[*:1]; hLys = NCCCCC[C@H](N)C(=O)O; Api = NC1(C(=O)O)CCNCC1; Thp = NC1(C(=O)O)CCOCC1; Aib = CC(C)(N)C(=O)O

How the values were obtained:
[1] = target: biotinylated extracellular domain of the human GIP receptor (bioGIPR) (human) (UniProt P48546); assay: SPR single cycle kinetics, bioGIPR captured on chip; category B: pKD 8.1-9.0
[2] = target: biotinylated extracellular domain of the human GIP receptor (bioGIPR) (human) (UniProt P48546); assay: SPR single cycle kinetics, bioGIPR captured on chip; category A: t1/2 >15 min
[3] = target: human Gastric Inhibitory Peptide Receptor (GIPR) (human) (UniProt P48546); assay: FACS competition vs biotinylated GIP-057 on CHO-K1-hGIPR cells; category B: pIC50 7.1-8.0
[4] = target: human Gastric Inhibitory Peptide Receptor (GIPR) (human) (UniProt P48546); assay: FACS competition vs biotinylated GIP-057 on CHO-K1-hGIPR cells; category C: pIC50 6.1-7.0
[5] = target: human Gastric Inhibitory Peptide Receptor (human) (UniProt P48546); assay: FACS competition with GIP-057 on CHO-K1-hGIPR cells; pIC50 category A: >8.0
[6] = target: human Gastric Inhibitory Peptide Receptor (GIPR) (human) (UniProt P48546); assay: FACS competition vs biotinylated GIP-057 on CHO-K1-hGIPR cells; category A: pIC50 >8.0
[7] = target: human Gastric Inhibitory Peptide Receptor (human) (UniProt P48546); assay: FACS competition with GIP-057 on CHO-K1-hGIPR cells; pIC50 category B: 7.1-8.0

biotinylated extracellular domain of the human GIP receptor (bioGIPR) (human), sequence (P48546 24-138 limits assumed): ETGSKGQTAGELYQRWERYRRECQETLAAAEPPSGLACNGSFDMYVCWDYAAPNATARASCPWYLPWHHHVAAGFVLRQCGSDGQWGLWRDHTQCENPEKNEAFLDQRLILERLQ
human Gastric Inhibitory Peptide Receptor (GIPR) (human), sequence (P48546 22-466 limits assumed): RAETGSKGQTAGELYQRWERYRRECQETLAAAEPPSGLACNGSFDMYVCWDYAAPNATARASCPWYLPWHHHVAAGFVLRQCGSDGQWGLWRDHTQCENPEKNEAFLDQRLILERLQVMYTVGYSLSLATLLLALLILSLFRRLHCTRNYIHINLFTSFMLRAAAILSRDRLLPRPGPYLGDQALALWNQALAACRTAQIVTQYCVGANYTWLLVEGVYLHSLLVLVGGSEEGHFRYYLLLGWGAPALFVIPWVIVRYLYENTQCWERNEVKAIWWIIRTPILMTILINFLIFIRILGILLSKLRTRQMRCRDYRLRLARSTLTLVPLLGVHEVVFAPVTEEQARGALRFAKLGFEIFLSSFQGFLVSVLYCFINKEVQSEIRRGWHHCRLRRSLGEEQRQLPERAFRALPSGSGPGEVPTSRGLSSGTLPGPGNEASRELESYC
human Gastric Inhibitory Peptide Receptor (human), sequence (P48546 22-466 limits assumed): as above

B1: Ac-Asp-Trp-5Clw-Hyp-Har-leu-[Cys(2Lut)-Thp-Leu-Ile-Cys]-NH2 (peptide)
peptide: Ac-DW[Trp(5-Cl)][Hyp][hArg][dL]C[Thp]LIC-NH2
modifications: linker 7-11 via Pyridine(2,6-diCH2)
SMILES: CC[C@H](C)[C@@H]1NC(=O)[C@H](CC(C)C)NC(=O)C2(CCOCC2)NC(=O)[C@@H](NC(=O)[C@@H](CC(C)C)NC(=O)[C@H](CCCCNC(=N)N)NC(=O)[C@@H]2C[C@@H](O)CN2C(=O)[C@H](Cc2c[nH]c3ccc(Cl)cc23)NC(=O)[C@H](Cc2c[nH]c3ccccc23)NC(=O)[C@H](CC(=O)O)NC(C)=O)CSCc2cccc(n2)CSC[C@@H](C(N)=O)NC1=O
B1 gave a pKD [1] of 8.1 to 9 pkd, a t1/2 [2] of over 15 min and a pIC50 [3] of 7.1 to 8 pic50.

B2: Ac-Asp-Eaa-Eaa-Hyp-Glu-leu-[Cys(2Lut)-Thp-Leu-Ile-Cys]-NH2 (peptide)
peptide: Ac-D[Phe(3,4-Cl2)][Phe(3,4-Cl2)][Hyp]E[dL]C[Thp]LIC-NH2
modifications: linker 7-11 via Pyridine(2,6-diCH2)
SMILES: CC[C@H](C)[C@@H]1NC(=O)[C@H](CC(C)C)NC(=O)C2(CCOCC2)NC(=O)[C@@H](NC(=O)[C@@H](CC(C)C)NC(=O)[C@H](CCC(=O)O)NC(=O)[C@@H]2C[C@@H](O)CN2C(=O)[C@H](Cc2ccc(Cl)c(Cl)c2)NC(=O)[C@H](Cc2ccc(Cl)c(Cl)c2)NC(=O)[C@H](CC(=O)O)NC(C)=O)CSCc2cccc(n2)CSC[C@@H](C(N)=O)NC1=O
B2 gave a pIC50 [4] of 6.1 to 7 pic50.

With Ac-DW[Trp(5-Cl)][Hyp]E[dL]C[Thp]LIC-NH2 (disulfide 7-11) [Ac-Asp-Trp-5Clw-Hyp-Glu-leu-[Cys-Thp-Leu-Ile-Cys]-NH2] the pIC50 [4] was 6.1 to 7 pic50.

Ac-D[Phe(2-Cl)][Trp(5-Cl)][Hyp]E[dL]C[Thp]LIC (linker 7-11 via Pyridine(2,6-diCH2); not fully specified (C-terminus)) [Ac-Asp-Ocf-5Clw-Hyp-Glu-leu-[Cys(2Lut)-Thp-Leu-Ile-Cys]-lys(DOTA)-NH2] gave a pIC50 [4] of 6.1 to 7 pic50.

In the case of Ac-[Cya]G[Trp(5-Cl)][Hyp]E[dL]C[Aib]LI[Cysteamide] (linker 7-11 via 2Lut″) [Ac-Cya-Gly-5Clw-Hyp-Glu-leu-[Cys(2Lut)-Aib-Leu-Ile-AET]], the pIC50 [4] is reported as 6.1 to 7 pic50.

B3: DOTA-APAc-Asp-Gly-5Clw-Hyp-Glu-leu-[Cys(2Lut)-Thp-Leu-Ile-AET] (peptide)
peptide: {DOTA-APAc″}-DG[Trp(5-Cl)][Hyp]E[dL]C[Thp]LI[Cysteamide]
modifications: linker (positions not given here) via Pyridine(2,6-diCH2); not fully specified (bridges); printed as DOTA-APAc-Asp-Gly-5Clw-Hyp-Glu-leu-[Cys(2Lut)-Thp-Leu-Ile-AET]
In the case of B3, the pIC50 [4] is reported as 6.1 to 7 pic50.

{DOTA-Ttds}-DW[Trp(5-Cl)][Pro(4S-NH2)](Ac)E[dL]C[Aib]LI[Cysteamide] (linker 7-11 via mXylylene) [DOTA-Ttds-Asp-Trp-5Clw-4Ap(Ac)-Glu-leu-[Cys(3MeBn)-Aib-Leu-Ile-AET]] was tested, and the pIC50 [5] was over 8 pic50, the pKD [1] was 8.1 to 9 pkd and the t1/2 [2] was over 15 min.

B4: Ac-Asp-Trp-5Clw-Hyp-Hly-leu-[Cys(2Lut)-Thp-Leu-Ile-Cys]-NH2 (peptide)
peptide: Ac-DW[Trp(5-Cl)][Hyp][hLys][dL]C[Thp]LIC-NH2
modifications: linker 7-11 via Pyridine(2,6-diCH2)
SMILES: CC[C@H](C)[C@@H]1NC(=O)[C@H](CC(C)C)NC(=O)C2(CCOCC2)NC(=O)[C@@H](NC(=O)[C@@H](CC(C)C)NC(=O)[C@H](CCCCCN)NC(=O)[C@@H]2C[C@@H](O)CN2C(=O)[C@H](Cc2c[nH]c3ccc(Cl)cc23)NC(=O)[C@H](Cc2c[nH]c3ccccc23)NC(=O)[C@H](CC(=O)O)NC(C)=O)CSCc2cccc(n2)CSC[C@@H](C(N)=O)NC1=O
B4 showed a pKD [1] of 8.1 to 9 pkd, a t1/2 [2] of over 15 min and a pIC50 [6] of over 8 pic50.

Ac-DW[Trp(5-Cl)][Hyp]R[dL]C[Thp]LIC-NH2 (linker 7-11 via Pyridine(2,6-diCH2)) [Ac-Asp-Trp-5Clw-Hyp-Arg-leu-[Cys(2Lut)-Thp-Leu-Ile-Cys]-NH2] was tested, and the pKD [1] was 8.1 to 9 pkd, the t1/2 [2] was over 15 min and the pIC50 [6] was over 8 pic50.

With Suc-W[Trp(5-Cl)][Hyp]E[dL]C[Api](MeO10kDaPEGAc)LIC-{APAc-Lys(DOTA)-NH2} (linker 6-10 via 2Lut) [HO-Succinyl-Trp-5Clw-Hyp-Glu-leu-[Cys(2Lut)-Apc(MeO10kDaPEGAc)-Leu-Ile-Cys]-APAc-Lys(DOTA)-NH2] the pKD [1] was 8.1 to 9 pkd, the t1/2 [2] was over 15 min and the pIC50 [7] was 7.1 to 8 pic50.
